In test [1] the target is T1, Galectin-3 (Homo sapiens, UniProt P17931).
T1 construct: gene LGALS3; CRD domain (114–250), C-terminal 6His-tag
As to the kind of experiment: SPR steady-state KD; 1H-15N HSQC NMR titration (slow exchange). The format is binding.

The target in test [2] is full length human Galectin-3 (1-250) (human) (UniProt P17931). As to the kind of experiment: dynamic light scattering; after centrifugation and filtration; with 140 µM LNnT (CRD up to 1.2 mM LNnT); 41 µM CRD, 37 µM FL; 5 mM potassium phosphate pH 7.4; 25°C.
Test [3] shares this target. As to the kind of experiment: dynamic light scattering; before filtration, after purification and freezing at -80°C; no glycan; 41 µM CRD, 37 µM FL; 5 mM potassium phosphate pH 7.4; 25°C.
The target of test [4] is human Galectin-3 Carbohydrate Recognition Domain (114-250) (human) (UniProt P17931). Described as above.

T1 sequence (P17931 114-250): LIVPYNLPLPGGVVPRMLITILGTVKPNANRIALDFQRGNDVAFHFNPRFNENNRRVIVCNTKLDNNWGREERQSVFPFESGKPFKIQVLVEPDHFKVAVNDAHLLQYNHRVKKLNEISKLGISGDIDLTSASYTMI

Usually Kd stands for the equilibrium constant for the complex coming apart. `CC(=O)N[C@H]1[C@H](O[C@H]2[C@@H](O)[C@@H](CO)O[C@@H](O[C@H]3[C@H](O)[C@@H](O)C(O)O[C@@H]3CO)[C@@H]2O)O[C@H](CO)[C@@H](O[C@@H]2O[C@H](CO)[C@H](O)[C@H](O)[C@H]2O)[C@@H]1O` (some centres unmarked) [LNnT, lacto-N-neoTetraose] returned an equilibrium dissociation constant (Kd) in test [1] of 140 ± 17 µM. Regarding “full length human Galectin-3 (1-250) (from UniProt P17931 1-250) (natural protein)”, in test [2], the % mass of size <100 nm (46.73 nm), with 140 µM LNnT was 8.7% and the % mass of size >100 nm, with 140 µM LNnT is 91.3%. The same compound showed a % mass of size >100 nm in test [3] of 67%.

In the case of “human Galectin-3 Carbohydrate Recognition Domain (114-250) (from UniProt P17931 114-250) (domain or fragment)”, the % mass of size >100 nm in test [4] was 0.7%.
